Measurements: the RNAGym collection of RNA variant scans (doi:10.1073/pnas.2313332121)

B1: TPR t1 (parent)
chain: GACCAAUCUGCCCUCAGAGCUCGAGAACAUCUUCGGAUGCAGAGGAGGCAGGCUUCGGUGGCGCGAUAGCGCCAACGUCCUCAACCUCCAAUGCAUCCCACCACAUGAUGAUGCCUGAAGAGCCUUGGUUUUUUG

Variants of: B1
Assay: polymerase ribozyme fitness, log enrichment relative to wild type (log ratio); higher = more active; in vitro selection for triplet polymerase activity
Procedure, shortened: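 Mutant libraries of both subunits of a heterodimeric triplet polymerase ribozyme were PCR-built, transcribed, and selected once in triplicate, with frozen incubation at −7 °C and capture of gel-excised extended constructs on streptavidin beads before RT-PCR. Illumina sequencing of input and output libraries was filtered to genotypes with ≥10 input reads and ≥1 read per output. Fitness is the logarithm of genotype enrichment over wild-type enrichment, using inverse-variance-weighted replicate averages. The logarithm is base 2.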
With GACCAAUCUGCCCUCAGAGCUCGAGAACAUCUUCGGCUGCAGAUGAGGCAGGCUUCGGUGGAGCGAUAGCGCCAACGUCCUCAACCUCCAAUGCAUCCCACCACAUGAUGAUGCCUGAAGAGCCUUGGUUUUUUG the “polymerase ribozyme fitness (log ratio)” value was -2.41.
For GACCAAUCUGCCCUCAGAGCUCGAGAACAUCUUCGGCUGCAGAGGAGACAGGCUUCGGUGGCGCGAUGGCGCCAACGUCCUCAACCUCCAAUGCAACCCACCACAUGAUGAUGCCUGAAGAGCCUUGGUUUUUUG, the “polymerase ribozyme fitness (log ratio)” value was -3.13.
With GACCAAUCUGCCCUCAGAGCUCGAGAACAUCUUCGGCUGCAGAGGAGGCAGGCUUCGAUGGCGCGAUAGCGGCAACGCCCUCAACCUCCAAUGCAUCCCACCACAUGAUGAUCCCUGAAGAGCCUUGGUUUUUUG the “polymerase ribozyme fitness (log ratio)” value was -3.84.
In the case of GACCAAUCUGCCCUCAGAGCUCGAGAACAUCUUCGGCUGCAGAGGAGGCAGGCUUCGGUGGCGCGAUAGCGCCAACGUCCUCAACCUCCAAUGCAUCCCACCACAUGAUGAUGCCUGAAGAGCCUUGCUUUUUUG, the “polymerase ribozyme fitness (log ratio)” value is reported as -3.32.
With GACCAAUCUGCCCUCAGAGCUCGAGAACAUCUUCGGCUGCAGAGGAGGCAGGCUUCGGUGGCGCGAUAGCGCCAACGUCCUCAACCUCCAAUGCAUCCCACCACAUGAUGAUGGCUGAAAAGUCUUGGUUUUUUG the “polymerase ribozyme fitness (log ratio)” value was -5.25.
In the case of GACCAAUCUGCCCUCAGAGCUCGAGAACAUCUUCGGCUGCAGAGGAGGCAGGCUUCGGUGUCGCGAUAGCGCCAACGUCCUCAACCUCCAAUGCAUCCCACCACAUGAUGAUGCCUGAAGAGCCUUGGUUUUUUG, the “polymerase ribozyme fitness (log ratio)” value is reported as 0.0821.
With GACCAAUCUGCCCUCAGAGCUCGAGAACAUCUUCGGCUGCAGAGGAGGCACGCUUCGGUGGCGCGAUAGCGCCAACGUCCUCAACCUCCAAUGCAUCCCACCACAUGAUGAUGCCUGAAGAGCCUUGGUUUUUUG the “polymerase ribozyme fitness (log ratio)” value was -4.02.
With GACCAAUCUGCCCUCAGAGCUCGAGAACAUCUUCGGCUGCAGAUGAGGCAGGCUUCGGUGGCGCGAUAGCGCCAACGUCCUCAACCUCCAAUGCAUCCCACCACAUGAUGAUGCCUGAAGAGCCUUGGUUUUGUG the “polymerase ribozyme fitness (log ratio)” value was -2.6.
For GACCAAUCUGCCCUCAGAGCUCGAGAACAUCUUCGGCUGCAGAGCAGGCAGGCUUCGGUGGCGCGAUAGCGCCAACGUCCUCAACCUCCAAUGCAUCCCACCACAUGAUGGUGCCUGAAGAGCCUUGGUUUUUUG, the “polymerase ribozyme fitness (log ratio)” value was -2.91.
For GACCAAUCUGCCCUCAGAGCUCGAGAACAUCUUCGGCUGCAGAGGAGGCAGGCUUCGGUGGCGCGAUAGCGCAAACGUCCUCAACCUCCAAUGCAUCCCACCACAUGAUGAUGCCUGUAGAGCCGUGGUUUUUUG, the “polymerase ribozyme fitness (log ratio)” value was -0.0605.
For GACCAAUCUGCCCUCAGAGCUCGAGAACAUCUUCGGCUGCAGAGGAGGCAGGCUUCGGUGGCGCGAUAGCGCCAACGUCCUCAACCUCCAAUGCAUCUCACCACAUGAUGAUGCCUGAAGAGCCUUGGUUUUUUG, the “polymerase ribozyme fitness (log ratio)” value was -1.41.
For GACCAAUCUGCCCUCAGAGCUCGAGAACAUCUUCGGCUGCAGAGUAGGCAUGCUUCGGUGGCGCGAUAGCGCUAACGUCCUCAACCUCCAAUGCAUCCCACCACAUGAUGAUGCCUGAAGAGCCUUGGUUUUUUG, the “polymerase ribozyme fitness (log ratio)” value was -4.53.
For GACCAAUCUGCCCUCAGAGCUCGAGAACAUCUUCGGCUGCAGAGGAGGCAGGCUUCGGUGGCGCGAUAGCGCCAACGUCCUCAACCUCCAAUGCAUCCCACCACAUGAUGAUGCCUGAAUAGCCUUGGUUUUUUG, the “polymerase ribozyme fitness (log ratio)” value was 0.436.
With GACCAAUCUGCCCUCAGAGCUCGAGAACAUCUUCGGCUGCAGAGGAGGCAGGCUUCGGUGGCGCGAUAGCGCCAACGUCCUCAACCUCCAAUGCAUCCCACCACAUGAUGAUCCCUGAAGAGCCUUGGUUUUUUG the “polymerase ribozyme fitness (log ratio)” value was -2.44.
For GACCAAUCUGCCCUCAGAGCUCGAGAACAUCUUCGGGUGCAGUUGAGGCAGGCUUCGGUGGCGCGAUAGCGUCAACGUCCUCAACCCCCAAUGCAUCCCACCAUAUGAUGAUGCCUGAAGAGCCUUGGGUUUUUG, the “polymerase ribozyme fitness (log ratio)” value was -2.31.
With GACCAAUCUGCCCUCAGAGCUCGAGAACAUCUUCGGCUGCAGAGGAGGCAGGCUUCGGUUGCGCGAUAGCGCCAACGUCCACAACCUCCAAUGCAUCCCACCACAUGAUGAUGCCUGAAGCGCCUUGGUUUUUUG the “polymerase ribozyme fitness (log ratio)” value was 0.858.
For GACCAAUCUGCCCUCAGAGCUCGAGAACAUCUUCGGCUGCAGAUGAGGCAGGCUUGGGUGGCGCGAUAGCGCAAACGUCCUCAACUUCCAAUGCAUCCCACCACAUGAUGAUGCCUGAAGAGCCUUGGUUUUUUG, the “polymerase ribozyme fitness (log ratio)” value was -5.78.
In the case of GACCAAUCUGCCCUCAGAGCUCGAGAACAUCUUCGGCUGCAGAGGAGGCAGGCUUCGGUGGCGCGAUAGCGCCAACGUCCUCAACCUCCAAUGCAUCCCACCACAUGAUGAUGCCGGAAGAGCCUUGGUUUUUUG, the “polymerase ribozyme fitness (log ratio)” value is reported as -2.29.
For GACCAAUCUGCCCUCAGAGCUCGAGAACAUCUUCGGCUGCACAGGAGGCAGGCUUCGGUGGCGCGAUAGCGCCAACGUCCUCAACCUCCAAUGCAUCCCACCACAUGAUGAUGCCUGAAGAACCUUGGUUUUUUG, the “polymerase ribozyme fitness (log ratio)” value was -2.78.
In the case of GACCAAUCUGCCCUCAGAGCUCGAGAACAUCUUCGGCUGCAGAGGAGGCAGGCUUCGGUUGCGCGAUAGCGCCAACGUCCUCAACCUCCAAUGCAACCCACCACAUGAUCAUGCCUGAAGAGCCUUGGUUUUUAG, the “polymerase ribozyme fitness (log ratio)” value is reported as -2.04.
With GACCAAUCUGCCCUCAGAGCUCGAGAACAUCUUCGGCUGCAGAGGAGGCAGGCUUCGGUGGCGCGAUAGCGCCAACGUCCUCAACCUCCAAUUCAUCCCACCACAUGAUGGUGCCUGAAGAGCCUUGGUUUUUUG the “polymerase ribozyme fitness (log ratio)” value was -2.63.
